Measurements from article PMC9408373 (2022).
Blank lines part the entries; values can stand above or below the binder they belong to.

Key:
[1] = target: T1, human CDC42 (aa 1-178), wild type (human, UniProt P60953 1-178); assay: FP; mGDP-bound CDC42
[2] = target: T1, human CDC42 (aa 1-178), wild type; assay: FP; mGppNHp-bound CDC42

T1 sequence (P60953 1-178): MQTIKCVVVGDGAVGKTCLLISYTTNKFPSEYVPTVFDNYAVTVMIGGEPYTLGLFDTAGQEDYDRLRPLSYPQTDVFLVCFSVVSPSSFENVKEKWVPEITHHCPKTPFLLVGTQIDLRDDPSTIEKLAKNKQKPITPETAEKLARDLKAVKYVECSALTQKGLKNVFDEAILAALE

B2: human IQGAP1 GRD1 (aa 962-1345) (domain or fragment)
chain: SKEKREKLEAYQHLFYLLQTNPTYLAKLIFQMPQNKSTKFMDSVIFTLYNYASNQREEYLLLRLFKTALQEEIKSKVDQIQEIVTGNPTVIKMVVSFNRGARGQNALRQILAPVVKEIMDDKSLNIKTDPVDIYKSWVNQMESQTGEASKLPYDVTPEQALAHEEVKTRLDSSIRNMRAVTDKFLSAIVSSVDKIPYGMRFIAKVLKDSLHEKFPDAGEDELLKIIGNLLYYRYMNPAIVAPDAFDIIDLSAGGQLTTDQRRNLGSIAKMLQHAASNKMFLGDNAHLSIINEYLSQSYQKFRRFFQTACDVPELQDKFNVDEYSDLVTLTKPVIYISIGEIINTHTLLLDHQDAIAPEHNDPIHELLDDLGEVPTIESLIGESS
Kd [1]: 150 µM
Kd [2]: 152 µM

B3: human IQGAP1 C794 (aa 863-1657) (domain or fragment)
chain: DPPMVVVRKFVHLLDQSDQDFQEELDLMKMREEVITLIRSNQQLENDLNLMDIKIGLLVKNKITLQDVVSHSKKLTKKNKEQLSDMMMINKQKGGLKALSKEKREKLEAYQHLFYLLQTNPTYLAKLIFQMPQNKSTKFMDSVIFTLYNYASNQREEYLLLRLFKTALQEEIKSKVDQIQEIVTGNPTVIKMVVSFNRGARGQNALRQILAPVVKEIMDDKSLNIKTDPVDIYKSWVNQMESQTGEASKLPYDVTPEQALAHEEVKTRLDSSIRNMRAVTDKFLSAIVSSVDKIPYGMRFIAKVLKDSLHEKFPDAGEDELLKIIGNLLYYRYMNPAIVAPDAFDIIDLSAGGQLTTDQRRNLGSIAKMLQHAASNKMFLGDNAHLSIINEYLSQSYQKFRRFFQTACDVPELQDKFNVDEYSDLVTLTKPVIYISIGEIINTHTLLLDHQDAIAPEHNDPIHELLDDLGEVPTIESLIGESSGNLNDPNKEALAKTEVSLTLTNKFDVPGDENAEMDARTILLNTKRLIVDVIRFQPGETLTEILETPATSEQEAEHQRAMQRRAIRDAKTPDKMKKSKSVKEDSNLTLQEKKEKIQTGLKKLTELGTVDPKNKYQELINDIARDIRNQRRYRQRRKAELVKLQQTYAALNSKATFYGEQVDYYKSYIKTCLDNLASKGKVSKKPREMKGKKSKKISLKYTAARLHEKGVLLEIEDLQVNQFKNVIFEISPTEEVGDFEVKAKFMGVQMETFMLHYQDLLQLQYEGVAVMKLFDRAKVNVNLLIFLLNKKFYGK
Kd [1]: 64 µM

Next, values leading:

Kd [1]: 55 µM
B1: human IQGAP2 GRD2 (aa 875-1246) (domain or fragment)
chain: SKERRKTLETYQQLFYLLQTNPLYLAKLIFQMPQNKSTKFMDTVIFTLYNYASNQREEYLLLKLFKTALEEEIKSKVDQVQDIVTGNPTVIKMVVSFNRGARGQNTLRQLLAPVVKEIIDDKSLIINTNPVEVYKAWVNQLETQTGEASKLPYDVTTEQALTYPEVKNKLEASIENLRRVTDKVLNSIISSLDLLPYGLRYIAKVLKNSIHEKFPDATEDELLKIVGNLLYYRYMNPAIVAPDGFDIIDMTAGGQINSDQRRNLGSVAKVLQHAASNKLFEGENEHLSSMNNYLSETYQEFRKYFKEACNVPEPEEKFNMDKYTDLVTVSKPVIYISIEEIISTHSLLLEHQDAIAPEKNDLLSELLGSLGE

Kd [1]: 113 µM
B4: human IQGAP2 C795 (aa 780-1575) (domain or fragment)
chain: PLTVIRKFVYLLDQSDLDFQEELEVARLREEVVTKIRANQQLEKDLNLMDIKIGLLVKNRITLEDVISHSKKLNKKKGGEMEILNNTDNQGIKSLSKERRKTLETYQQLFYLLQTNPLYLAKLIFQMPQNKSTKFMDTVIFTLYNYASNQREEYLLLKLFKTALEEEIKSKVDQVQDIVTGNPTVIKMVVSFNRGARGQNTLRQLLAPVVKEIIDDKSLIINTNPVEVYKAWVNQLETQTGEASKLPYDVTTEQALTYPEVKNKLEASIENLRRVTDKVLNSIISSLDLLPYGLRYIAKVLKNSIHEKFPDATEDELLKIVGNLLYYRYMNPAIVAPDGFDIIDMTAGGQINSDQRRNLGSVAKVLQHAASNKLFEGENEHLSSMNNYLSETYQEFRKYFKEACNVPEPEEKFNMDKYTDLVTVSKPVIYISIEEIISTHSLLLEHQDAIAPEKNDLLSELLGSLGEVPTVESFLGEGAVDPNDPNKANTLSQLSKTEISLVLTSKYDIEDGEAIDSRSLMIKTKKLIIDVIRNQPGNTLTEILETPATAQQEVDHATDMVSRAMIDSRTPEEMKHSQSMIEDAQLPLEQKKRKIQRNLRTLEQTGHVSSENKYQDILNEIAKDIRNQRIYRKLRKAELAKLQQTLNALNKKAAFYEEQINYYDTYIKTCLDNLKRKNTRRSIKLDGKGEPKGAKRAKPVKYTAAKLHEKGVLLDIDDLQTNQFKNVTFDIIATEDVGIFDVRSKFLGVEMEKVQLNIQDLLQMQYEGVAVMKMFDKVKVNVNLLIYLLNKKFYGK
